Here are results for seven molecules from patent US20220204592A1.

What is called Kd is the free concentration of one partner at which half of the binding sites on the other are occupied at equilibrium, for simple one-to-one binding. A lower Kd goes with tighter binding. The term koff denotes a measure of how fast the partners let go of each other. A low value points to slow dissociation. One may read the kon as the rate constant with which the complex forms. Read a low kon as slow association.

For assay [1], the target named is H3 hemagglutinin of H3N2 strain X-31 (influenza A virus X-31 (H3N2)) (UniProt P03437). The experiment in a line: cell-based or functional assay.
The target in assay [2] is H1 hemagglutinin (A/Puerto Rico/8/34) (influenza A virus A/Puerto Rico/8/34 (H1N1)) (UniProt P03452). The experiment in a line: cell-based or functional assay.
In assay [3] the target is H3 hemagglutinin (A/Brisbane/10/2007) (influenza A virus A/Brisbane/10/2007 (H3N2)). Description: ELISA on coated HA, relative Kd (4-parameter fit). For orientation: ELISA stands for enzyme-linked immunosorbent assay.
Assay [4] addresses H7 hemagglutinin (A/Netherlands/219/2003) (influenza A virus A/Netherlands/219/2003 (H7N7)). The experiment in a line: ELISA on coated HA, relative Kd (4-parameter fit).
In assay [5] the target is H3 hemagglutinin (A/Wyoming/03/2003) (influenza A virus A/Wyoming/03/2003 (H3N2)). The experiment in a line: ELISA on coated HA, relative Kd (4-parameter fit).
The target in assay [6] is H3 hemagglutinin (A/Wisconsin/67/2005) (influenza A virus A/Wisconsin/67/2005 (H3N2)). The experiment in a line: ELISA on coated HA, relative Kd (4-parameter fit).
Assay [7] has as its target H9 hemagglutinin (A/Hong Kong/1073/99) (influenza A virus A/Hong Kong/1073/99 (H9)). Description: ELISA on coated HA, relative Kd (4-parameter fit).
Assay [8] concerns the target H3 hemagglutinin (A/New York/55/2004) (influenza A virus A/New York/55/2004 (H3N2)). The experiment in a line: ELISA on coated HA, relative Kd (4-parameter fit).
Assay [9] deals with H5 hemagglutinin (A/Vietnam/1203/2004) (influenza A virus A/Vietnam/1203/2004 (H5N1)). Description: ELISA on coated HA, relative Kd (4-parameter fit).
In assay [10] the target is H1 hemagglutinin (A/Solomon Islands/3/2006) (influenza A virus A/Solomon Islands/3/2006). The experiment in a line: ELISA on coated HA, relative Kd (4-parameter fit).
For assay [11], the target named is H5 hemagglutinin (A/Vietnam/1203/2004) (influenza A virus A/Vietnam/1203/2004 (H5N1)).
The target in assay [12] is H3 hemagglutinin (A/Brisbane/10/2007) (influenza A virus A/Brisbane/10/2007 (H3N2)).
Assay [13] deals with H7 hemagglutinin (A/Netherlands/219/2003) (influenza A virus A/Netherlands/219/2003 (H7N7)).
Assay [14] concerns the target H5 hemagglutinin (A/Vietnam/1203/2004) (influenza A virus A/Vietnam/1203/2004 (H5N1)). The source holds these as a separate data set.
Assay [15] has as its target H3 hemagglutinin (A/Brisbane/10/2007) (influenza A virus A/Brisbane/10/2007 (H3N2)). The experiment in a line: ELISA on coated HA.
The target in assay [16] is H3 hemagglutinin (A/Perth/16/2006) (influenza A virus A/Perth/16/2006 (H3)). Description: ELISA on coated HA.
The target of assay [17] is H7 hemagglutinin (A/Netherlands/219/2003) (influenza A virus A/Netherlands/219/2003 (H7N7)). Description: ELISA on coated HA.
Assay [18] addresses H3 hemagglutinin (A/Moscow/10/1999) (influenza A virus A/Moscow/10/1999 (H3)). The experiment in a line: ELISA on coated HA.
Assay [19] deals with H3 hemagglutinin (A/Wyoming/03/2003) (influenza A virus A/Wyoming/03/2003 (H3N2)). The experiment in a line: ELISA on coated HA.
Assay [20] deals with H3 hemagglutinin (A/Wisconsin/67/2005) (influenza A virus A/Wisconsin/67/2005 (H3N2)). Description: ELISA on coated HA.
Assay [21] concerns the target H9 hemagglutinin (A/Hong Kong/1073/99) (influenza A virus A/Hong Kong/1073/99 (H9)). The experiment in a line: ELISA on coated HA.
For assay [22], the target named is H3 hemagglutinin (A/New York/55/2004) (influenza A virus A/New York/55/2004 (H3N2)). Description: ELISA on coated HA.
In assay [23] the target is HA from influenza B (B/Wisconsin/1/2010) (influenza B virus B/Wisconsin/1/2010). The experiment in a line: ELISA on coated HA.
Assay [24] concerns the target H5 hemagglutinin (A/Vietnam/1203/2004) (influenza A virus A/Vietnam/1203/2004 (H5N1)). The experiment in a line: ELISA on coated HA.
The target of assay [25] is H3 hemagglutinin (A/Uruguay/716/2007) (influenza A virus A/Uruguay/716/2007 (H3)). The experiment in a line: ELISA on coated HA.
The target in assay [26] is H2 hemagglutinin (A/chicken/PA/2004) (influenza A virus A/chicken/PA/2004 (H2)). The experiment in a line: ELISA on coated HA.
Assay [27] concerns the target H16 hemagglutinin (A/black headed gull/Mongolia/1756/2006) (influenza A virus A/black headed gull/Mongolia/1756/2006 (H16)). The experiment in a line: ELISA on coated HA.
Assay [28] addresses H9 hemagglutinin (A/Guinea fowl/HK/WF10/99) (influenza A virus A/Guinea fowl/HK/WF10/99 (H9)). Description: ELISA on coated HA.
The target of assay [29] is H3 hemagglutinin (A/Brisbane/10/2007) (influenza A virus A/Brisbane/10/2007 (H3N2)). The experiment in a line: cell-based or functional assay.
For assay [30], the target named is H3 hemagglutinin (A/Wyoming/03/2003) (influenza A virus A/Wyoming/03/2003 (H3N2)). The experiment in a line: cell-based or functional assay.

Substitutions are numbered along the chain they refer to. Where two headings read alike, the source gives them in different places.

B1: Ab 037 (antibody, V domains shown)
VH: EVQLLESGGGLVKPGQSLKLSCAASGFTFTSYAMHWVRQPPGKGLEWVAVVSYDGNYKYYADSVQGRFTISRDNSKNTLYLQMNSLRAEDTAVYYCAKDSRLRSLLYFEWLSQGYFNPWGQGTTLTVSS
VL: DIQMTQSPSSLSASVGDRVTITCRSSQSITFNYKNYLGWYQQKPGKAPKLLIYWGSYLESGVPSRFSGSGSGTDFTLTISSLQPEDFATYYCQQHYRTPPSFGQGTKVEIK
Take B1: the MIC in assay [1] stood at 8 mg/L; in assay [2], 4 mg/L. The Kd in assay [3] is 0.087 nM; in assay [4] it was 0.114 nM; in [5] it was 0.512 nM; in assay [6], 0.313 nM; in assay [7], 0.075 nM; in assay [8] it was 0.14 nM. Moreover, the Kd in assay [9] is 0.059 nM; in [10] it was 0.075 nM.

B2: Ab 038 (antibody, V domains shown)
VH: B1 VH with E1Q, S7T
VL: B1 VL
As for B2, the MIC is 4 mg/L in [1] and 2 mg/L in assay [2]. Moreover, the dissociation constant (Kd) is < 0.025 nM in assay [3]; 0.119 nM in [4]; 0.515 nM in [5]; 0.199 nM in assay [6]; < 0.025 nM in assay [7]; 0.102 nM in assay [8]. Further, the Kd in assay [9] came to 0.087 nM; in [10], 0.064 nM.

B3: Ab 004 (antibody, V domains shown)
VH: B1 VH with E1Q, S7T
VL: DIVMTQSPDTLAVTLGERATIQCKSSQTVTFNYKNYLAWYQQKPGQPPKLLIYWASTRESGVPDRFSGSGSGTDFTLTITSLQAEDVAVYYCQQHYRTPPSFGQGTKLDIK
Turning to B3, the MIC was determined as 6 mg/L in assay [1] and 12 mg/L in [2]. Also, the dissociation constant (Kd) in assay [3] was < 0.08 nM; in [4] it was 0.073 nM; in assay [5], 0.272 nM; in [6], 0.713 nM; in assay [7] it was 0.06 nM; in assay [8], 0.066 nM. In addition, the Kd in assay [9] is 0.06 nM; in assay [10], < 0.08 nM.

B4: Ab 005 (antibody, V domains shown)
VH: B1 VH with E1Q, S7T
VL: B3 VL with L11V, L15V, Q22N, T80S
B4: the MIC in assay [1] and in assay [2] was 10 mg/L in each case. Also, the Kd in [3] was 0.052 nM; in assay [4], 0.064 nM; in assay [5] it was 0.311 nM; in assay [6], 1.09 nM; in assay [7] it was 0.035 nM; in assay [8], 0.065 nM. The Kd is 0.038 nM in [9] and < 0.08 nM in [10].

B5: Ab 031 (antibody, V domains shown)
VH: B1 VH
VL: B1 VL with G38A
B5: the MIC in [1] was found to be 20 mg/L; in [2], 1 mg/L. For the same molecule, the Kd was 0.068 nM in assay [3]; 0.091 nM in assay [4]; 0.331 nM in [5]; 0.253 nM in [6]; < 0.025 nM in assay [7]; 0.059 nM in [8]. Moreover, the Kd in [9] and in assay [10] was < 0.025 nM each time.

B6: Ab 032 (antibody, V domains shown)
VH: B1 VH with E1Q, S7T
VL: B1 VL with G38A
On to B6, for which the dissociation rate constant (koff) was < 5e-06 s⁻¹ in [11], 0.000376 s⁻¹ in [12] and 0.000161 s⁻¹ in assay [13]. Moreover, the dissociation constant (Kd) in assay [12] was 0.234 nM; in assay [13], 0.145 nM; in assay [3], < 0.025 nM; in assay [4], 0.106 nM; in assay [5], 0.262 nM; in assay [6] it was 0.208 nM. Moreover, the Kd in [7] was 0.079 nM; in assay [8] it was 0.094 nM; in assay [9], < 0.025 nM. Further, the association rate constant (kon) in [12] came out at 1.61e+06 M⁻¹ s⁻¹; in assay [13], 1.13e+06 M⁻¹ s⁻¹; in [14] it was 988000 M⁻¹ s⁻¹.

B7: Ab 044 (antibody, V domains shown)
VH: B1 VH with E1Q, S7T
VL: B1 VL with N32D, G38A
Take B7: the dissociation constant (Kd) in assay [15], in [16], in assay [17], in [18], in [19] and in assay [20] was < 0.5 nM throughout. Besides, the Kd in assay [21], in [22], in assay [23], in assay [24], in [25] and in assay [26] was < 0.5 nM each time. Moreover, the Kd in assay [27] and in assay [28] was < 0.5 nM in each case. Moreover, the EC50, Neutral Red (CPE inhibition) stood at 0.3 mg/L in assay [29] and 6.8 mg/L in [30].
